± gives the uncertainty stated by the source.

A short description of the series: amyloid nucleation score (Sup35N fusion, yeast selection) (log enrichment); library NNK3; higher = more nucleation; inactive = no reads after selection. The procedure, abridged: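 In psi-negative yeast, Sup35N fusions carrying peptides of 20 random codons were induced with 100 μM copper sulfate for 24 hours. The cells then grew 7 days at 30°C on medium lacking adenine and uracil, and plasmid inserts from input and output were Illumina-sequenced, excluding sequences with under 100 input reads. Nucleation score is the DiMSum log enrichment of output over input reads, centred on the mode score of non-aggregating sequences.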
PETMCLGAKRFITGRETREL registered an amyloid nucleation score of 0.588 ± 0.14.
Consider LVSKAGLSLRLKG, for which the amyloid nucleation score result was “inactive”.
Under LSFLTHCRHSWVRVRDILWA stands “inactive”; under SYSSMCLPKNTKAHASWC, “inactive”; under FTPYICVVQLLCYCMILRIY, “inactive”.
For VCITRMQVRLPTYLRVQSKA, the amyloid nucleation score result was “inactive”.
Turning to VSHFSSRHKRTEVRSGSPQT, the amyloid nucleation score entry is “inactive”.
Then YMLLQERLECSSLVDVSYVR, with “inactive”.
Under YLSGIPTVVIHVIFGMKDW stands “inactive”; under LYVYTMR, “inactive”; under LGAVCVQMKKIDLSKTLETR, “inactive”.
Under YATACGMILQKVVGKLTLLA stands -0.395 ± 0.46.
As for CMFVVFQLVTGHFTLLQYHG, the amyloid nucleation score was determined as 1.82 ± 0.077.
Under SCHFYTML stands 0.237 ± 0.65; under GNFMNNGRLVASPLLREVCC, “inactive”.
As to AEVHDDHPMGSDAHIYGTGG, the amyloid nucleation score entry was “inactive”.
In the case of CFLRKTSNASLIHPSRDTNN, the amyloid nucleation score entry is “inactive”.
Turning to DCNSVFVLRVFNSVLFGIKD, the amyloid nucleation score result is “inactive”.
Then MWPNITLFFSWRTEVLLYLI, with “inactive”; and KFVLETFCHSKPRLVLVNHD, with “inactive”.
Then HVNSNPHVLASEVK, with “inactive”; and NRPTAVSFCK, with “inactive”.
Under SMRSRCNFFTVCSAWLSFWE stands “inactive”; under GVNWFSIQFNIWVLSRDADL, 3.36 ± 0.06; under LISLPVG, -0.254 ± 0.7.
On to LAEGYVSVIRIYKRGWNEDV, for which the amyloid nucleation score result is “inactive”.
Consider ARLRVVIDRCLYRGLSQLQP, for which the amyloid nucleation score entry is “inactive”.
In the case of TSGDMRAVYGLYREIRLVNT, the amyloid nucleation score result was “inactive”.
Under PHHSRYAFYGNPTLAI stands “inactive”; under TLNIFVVSFNDYWVSVIIKD, 2.46 ± 0.066.
Then YGSYVWYSLLVREWLNSPGY, with “inactive”; and SRRNTFAVGNFNSVLLN, with “inactive”; and AWYFAP, with “inactive”.
As for KFRWVFYFGSAMEVREGSEF, the amyloid nucleation score is -0.141 ± 0.45.
Then HSDFY, with “inactive”.
In the case of TICRCRWGIRPYLALCIHYS, the amyloid nucleation score entry was “inactive”.
Under RIYTYKRIYRIKVLITWNRL stands “inactive”.
Then LVVNRDYFCRSVGPIVLLEP, with “inactive”; and RNMGYVTDNYLYTVLYYDCY, with “inactive”.
Then CFAHSLMR, with “inactive”; and IKSPLDFFNVYVMVLGNWQI, with “inactive”; and SKTMALMYLSFQPHYLYTLC, with “inactive”.
Take LWVSLFVSDVTRLFCLGFVT: the amyloid nucleation score entry is “inactive”.
Consider QQSTIIFFVWAWMELNPTWK, for which the amyloid nucleation score result is “inactive”.
Under VIMRMFSFARLFVGSYPFRV stands “inactive”.
Under SCYIEWMVFGSYPL stands “inactive”.
Take DFFLDYL: the amyloid nucleation score entry was “inactive”.
As to RCIMRYCAKALCKVICSQWL, the amyloid nucleation score result is “inactive”.
Regarding LNALLGQYSDISMRISLNVS, the amyloid nucleation score entry is “inactive”.
Under LVRHARNKDNLFGN stands “inactive”.
Then EVCFIRLLLLYCR, with “inactive”; and MRAFIRYCIFVCMSAYRNMV, with -0.352 ± 0.73; and LSRGDLLEYR, with “inactive”.

Source of the values: the supplement of paper PMC12042874.
